Sequences and labels used below:
B1: WNbFc 293 (Fc fusion)
chain: QVQLQESGGGSVQAGDSLRLSCVASGRTFSSYALGWFRRAPGKEREFVAAISWSGGTTYYADSVKGRFTISRDNAKNTVYLQMNSLKPEDTAVYYCAALWDGGSWYPEGLSDFGSWGQGTQVTVSS
notes: also called WNb 293-Fc; WNb 293-Fc fusion; source: Expi293F, transfected, purified from supernatant (MabSelect Prism A, SEC)
B2: WNbFc 294 (Fc fusion)
chain: QVQLQESGGGLVQAGGSLRLSCAASGRTFSSYAMGWFRQAPGKEREFVAAISWSGGTTYYGDSVKGRFTISRDNAKNTVYLQMNSLKPEDTAVYYCAAQGDGGSWFPEGLADFGSWGQGTQVTVSS
notes: source: Expi293F, transfected, purified from supernatant (MabSelect Prism A, SEC)
B3: WNb 285 (VHH)
VHH: QVQLQESGGGLVQAGGSLRLSCAASGRTFSDYAMGWFRQAPGKEREFVAAISWSGGTTYYADSVKGRFTISRDNAKNTVYLQMNSLTPEDTAVYYCAADYDYGWGRVRVSEYDYWGQGTQVTVSS
B4: WNb 291 (VHH)
VHH: QVQLQESGGGLVQAGGSLRLSCAASGRTFSNYFMGWFRQAPGKEREFVAAISWSGGTTYYADSVKGRFTISRDNAKNTVYLQMNSLKPEDTAVYYCAANTDYGMGFVRAYEYDYWGQGTQVTVSS
B5: WNb 280 (VHH)
VHH: QVQLQESGGGLVQAGGSLRLSCAASGRTFSNYFMGWFRQAPGKEREFVAAISWSGGSTYYTDSVKGRFTISRDNAKNTVYLQMNSLKPEDTAVYYCAGGLDMGWSRVNLGEYDYWGQGTQVTVSS
B6: WNb 279 (VHH)
VHH: QVQLQESGGGLVQPGGSLRLSCAASGRTFSDYFMGWFRQAPGKEREFVAAITWSGGSTYYTDSVKGRFTISRDNAKNTVYLQMNSLKPEDTAVYYCAGGLDMGWSRVALGEYDYWGQGTQVTVSS
B7: WNb 294 (VHH)
VHH: QVQLQESGGGLVQAGGSLRLSCAASGRTFSSYAMGWFRQAPGKEREFVAAISWSGGTTYYGDSVKGRFTISRDNAKNTVYLQMNSLKPEDTAVYYCAAQGDGGSWFPEGLADFGSWGQGTQVTVSS
B8: WNb 293 (VHH)
VHH: QVQLQESGGGSVQAGDSLRLSCVASGRTFSSYALGWFRRAPGKEREFVAAISWSGGTTYYADSVKGRFTISRDNAKNTVYLQMNSLKPEDTAVYYCAALWDGGSWYPEGLSDFGSWGQGTQVTVSS
B9: WNb 282 (VHH)
VHH: QVQLQESGGGLVQAGDSLRLSCAASGRTFSDYFMGWFRQAPGKEREFVASISWSGGTTYYADSVKGRFTISRDNAKNTVYLQMNRVKSEDTAVYYCAAARDMGWGRTGENEYDYWGQGTQVTVSS
B10: WNb 276 (VHH)
VHH: QVQLQESGGGLVQSGGSLRLSCAASGFTFSNYGMMWVRQAPGKGVEWVSRIDSDGTITLYKDSVKGRFTISRDNAKNMLYLQMESLKPEDTALYYCIKVMDWVPGRAPPFRGQGTQVTVSS
B11: WNb 286 (VHH)
VHH: QVQLQESGGGLVQAGGSLRLSCAASGRTFSSYAMGWFHQAPGKEREFVASISWSGGTTYYADSVKGRFTISRDNAKNTVYLQMNSLKPEDTAVYYCAAAVDYGLGLYRVGEYDSWGQGTQVTVSS
B12: WNb 287 (VHH)
VHH: QLQESGGGLVQPGGSLRLSCAASGRTFSFSDYAMGWFRQAPGKEREFVASISWSGGTTYYADSVKGRFTISRDNAKNTVYLQMNSLKPEDTAVYYCAAEIDRGLLLHAVYEYDYWGQGTQVTVSS
B13: WNb 281 (VHH)
VHH: QVQLQESGGGLVQAGGSLRLSCAASGRTFSDYFMGWFRQAPGKEREFVTAISWSGGSTYYADSVKGRFTISRDNAKNTVFLQMNSLKPEDTAVYYCAAALDEGWARVAGPEYDYWGQGTQVTVSS
B14: WNb 288 (VHH)
VHH: QVQLQESGGGLVQAGGSLRLSCAASGRTFSDYFMGWFRQAPGKEREFVAAISWSGGSTYYADSVKGRSTISRDNAKNTVYLQMNSLKPEDTAVYYCAADHDRGWARLRLAEYDYWGQGTQVTVSS
B15: WNb 284 (VHH)
VHH: QVQLQESGGGLVQAGGPLRLSCAASGRTFSDYFMGWFRQAPGMEREFVASISWSGGTTYYADSVKGRFTISRDNAKNTVYLQMNSLKPEDTAVYYCAAAIDYGLGLTVEYEYDYWGQGTQVTVSS
B16: WNb 278 (VHH)
VHH: QVQLQESGGGLVQAGGSLRLSCAASGRTFSDYFMGWFRQAPGMEREFVASISWSGGTTYYADSVKGRFTISRDNTKNTVYLQMNSLKPEDTAVYYCATAIDYGLGLTVEYEYDYWGQGTQVTVSS
B17: WNb 296 (VHH)
VHH: QVQLQESGGGLVQAGGSLRLSCAASGRTFSDYFMGWFRQAPGKEREFVASISWSGGTTYYADSVKGRFTISRDNANNTVYLQMNSLKPVDTAVYYCAAVADYGLGLTTSYEYDYWGQGTQVTVSS
B18: WNb 292 (VHH)
VHH: QVQLQESGGGLVQAGASLRLSCAASGRTFSDYAMGWFRQAPGKEREFVAAISWSGGTTYYADSVKGRFTISRDNAKNTVYLQMNSLKPEDTAVYYCAANTDYGLGLVRAYEYDYWGQGTQVTVSS
B19: WNb 289 (VHH)
VHH: QVQLQESGGGLVQAGGSLRLSCAASGRTFSDYAMGWFRQAPGKEREFVATISWSGGTTYYADSVKGRFTISRDNAKNTVYLQMNSLKPEDTAVYYCAAVMDLGMLAADGYEYDYWGQGTQVTVSS
B20: WNb 299 (VHH)
VHH: QVQLQESGGGWVQPGGSLRLSCAASGFTFSNYAMGWFRQAPGKEREFVATISWSGGTTVYADSVKGRFTISRDNAKNTVYLQMNSLKPEDTAVYYCAAASDYGMVQMSDYEYDYWGQGTQVTVSS
B21: WNb 297 (VHH)
VHH: QVQLQESGGGSVQAGGSLRLSCAASGRTFSDYAMGWFRQAPGKEREFVASISWSGGTTYYADSVKGRFTISRDNAKNTVYLQMNSLKPEDTAVYYCAADTDYGMGLITVPDFGSWGQGTQVTVSS
B22: WNb 298 (VHH)
VHH: QVQLQESGGGLVQPGGSLRLSCAASGRTFSDYFMGWFRQAPGKEREFVASISWSGGTTYYADSVKGRFTISRDNAKNTVYLQMNSLKPEDTAVYYCAAEIDYGLGLHAAADFGSWGQGTQVTVSS

The target in the first assay is T1, OC43 S1B+C (S1B and S1C domains of the hCoV-OC43 spike glycoprotein) (human coronavirus OC43, UniProt P36334 321-675).
T1 construct: also called recombinant OC43 S1B+C; recombinant OC43 protein; source: Expi293F, transfected, purified from supernatant (Ni-NTA IMAC, SEC); not shown: His6, C-terminal, cleaved
T1 sequence (looked up): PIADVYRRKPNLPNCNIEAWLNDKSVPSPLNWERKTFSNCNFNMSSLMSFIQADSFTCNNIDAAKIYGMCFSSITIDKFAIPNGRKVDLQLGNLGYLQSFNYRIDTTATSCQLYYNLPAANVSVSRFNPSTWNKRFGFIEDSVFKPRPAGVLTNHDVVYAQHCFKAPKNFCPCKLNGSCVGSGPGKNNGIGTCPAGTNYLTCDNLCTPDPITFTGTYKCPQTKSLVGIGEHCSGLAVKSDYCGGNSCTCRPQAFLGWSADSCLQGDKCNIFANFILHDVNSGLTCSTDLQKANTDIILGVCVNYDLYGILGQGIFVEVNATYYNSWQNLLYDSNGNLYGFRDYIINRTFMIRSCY
Test: not given
As to conditions: both partners purified.
As a reminder, the Kd is the concentration at which binding is half-saturated. A lower Kd goes with tighter binding. A word on the koff: it is the first-order rate constant of dissociation. High values mean a short-lived complex, low ones a long-lived complex. As a reminder, the kon is the rate constant with which the complex forms. High values mean fast association, low ones slow association. Take B1: the dissociation constant (Kd) was 7.51 nM, the off-rate (koff) came out at 0.000758 s⁻¹ and the kon was 101000 M⁻¹ s⁻¹.

In turn, B2 yielded a dissociation constant Kd of 36.9 nM, a koff of 0.00164 s⁻¹ and a kon of 45000 M⁻¹ s⁻¹.

The next assay deals with T1, OC43 S1B+C (S1B and S1C domains of the …). The assay can be described thus: BLI. The settings on record: both partners purified.
In turn, B3 registered a Kd of 4.23 nM, a koff of 0.000447 s⁻¹ and an on-rate (kon) of 106000 M⁻¹ s⁻¹.

On to B4, for which the Kd was 11.7 nM, the koff stood at 0.000527 s⁻¹ and the on-rate (kon) is 45000 M⁻¹ s⁻¹.

Consider B5, for which the Kd worked out at 22.9 nM, the off-rate (koff) came to 0.00161 s⁻¹ and the kon was determined as 70000 M⁻¹ s⁻¹.

On to B6, for which the Kd stood at 149 nM, the koff turned out to be 0.0086 s⁻¹ and the kon amounted to 58000 M⁻¹ s⁻¹.

In turn, B7 had a Kd of 26 nM, an off-rate (koff) of 0.00106 s⁻¹ and an on-rate constant (kon) of 41000 M⁻¹ s⁻¹.

Molecule B8 returned a Kd of 4.6 nM, a koff of 0.000417 s⁻¹ and an on-rate (kon) of 91000 M⁻¹ s⁻¹.

As to B9, the Kd came to 2.46 nM, the koff amounted to 0.000195 s⁻¹ and the kon worked out at 79000 M⁻¹ s⁻¹.

For the molecule B10, the equilibrium dissociation constant (Kd) came to 6.46 nM, the koff is 0.000518 s⁻¹ and the kon amounted to 82000 M⁻¹ s⁻¹.

Take B11: the Kd is 58.8 nM, the koff was found to be 0.00245 s⁻¹ and the kon is 42000 M⁻¹ s⁻¹.

In the case of B12, the affinity, expressed as Kd, was 11.2 nM; the off-rate constant (koff) was determined as 0.000933 s⁻¹; the kon stood at 84000 M⁻¹ s⁻¹.

Molecule B13 registered a dissociation constant Kd of 1.55 nM, an off-rate (koff) of 0.000183 s⁻¹ and a kon of 118000 M⁻¹ s⁻¹.

Regarding B14, binding was characterised by a dissociation constant (Kd) of 19.6 nM, the koff is 0.00124 s⁻¹ and the kon came to 64000 M⁻¹ s⁻¹.

The molecule B15 returned a Kd of 4.01 nM, a koff of 0.000363 s⁻¹ and an on-rate constant (kon) of 91000 M⁻¹ s⁻¹.

In the case of B16, the Kd came to 5.93 nM, the koff was 0.0004 s⁻¹ and the kon stood at 68000 M⁻¹ s⁻¹.

In the case of B17, the affinity, expressed as Kd, was 15.3 nM; the koff was 0.000786 s⁻¹; the kon worked out at 51000 M⁻¹ s⁻¹.

The molecule B18 displayed a Kd of 15.6 nM, a koff of 0.00116 s⁻¹ and a kon of 75000 M⁻¹ s⁻¹.

In the case of B19, the Kd amounted to 4.73 nM, the koff amounted to 0.000629 s⁻¹ and the kon came out at 132000 M⁻¹ s⁻¹.

Molecule B20 displayed a dissociation constant Kd of 9.9 nM, a koff of 0.00103 s⁻¹ and an association rate constant (kon) of 104000 M⁻¹ s⁻¹.

Take B21: the dissociation constant Kd turned out to be 21.4 nM, the koff was found to be 0.00199 s⁻¹ and the on-rate (kon) amounted to 93000 M⁻¹ s⁻¹.

The molecule B22 yielded a Kd of 8.94 nM, a koff of 0.000987 s⁻¹ and an on-rate constant (kon) of 111000 M⁻¹ s⁻¹.

(Values after publication PMC11237593, “Human coronavirus OC43 nanobody neutralizes virus and protects mice from infection” (Journal of Virology, 2024).)
